Laboratory results as given in patent US7572594B2, “Screening assays for agonists or antagonists or receptor activator of NF-κB” (Immunex Corporation, priority 2000, dated 2009).

How the values were obtained:
RANK = assay: radioimmune assay of reporter surface expression in 293/EBNA cells; format: cell-based; settings: 48 hours after transfection
Experimental: Additionally, surface expression of human IL-2α receptor can be analyzed using a radioactive antibody against IL-2α receptor. For the mIL-4R-specific radioimmune assay, mouse anti-human IL-2α monoclonal antibody reactive with mIL-4R was labeled with ^125I via a Chloramine T conjugation method; the resulting specific activity is typically […]. After 48 hours, cells transfected with pGL2-MMP-9/human IL-2 receptor were washed once with media (DMEM, 12 5% FBS). Non-specific binding sites were blocked by the addition of pre-warmed binding media containing 5% non-fat dry milk and incubation at 37° C./5% CO2 in a tissue culture incubator for one hour. The blocking media was decanted and binding buffer containing ^125I anti-mIL-4R (clone M1; rat IgG1) was added to the cells and incubated with rocking at room temperature for 1 hour. After incubation of the cells with the radio-labeled antibody, cells were washed extensively with binding buffer (2 X) and twice with phosphate-buffered saline (PBS). Cells were lysed in 1 ml of 0.5M NaOH, and total radioactivity measured with a gamma counter.

[1] = tested on: primary hematopoietic cells from the RANK −/− mice; assay: F-actin ring formation, phalloidin staining; format: cell-based, mouse; settings: 5 days in 40 ng/ml CSF-1 and 200 ng/ml mRANK-L
From the text: To detect F-actin rings, cells are fixed, such as by exposure to 3% paraformaldehyde, and visualized by staining cells with a fluorescent probe that binds specifically with actin. A suitable fluorescent tag is phalloidin, which can be obtained from Molecular Probes, Eugene, Oreg. The fluorescent signal is detected, for example, using a standard fluorescent microscope, and the number of cells having F-actin rings is visually quantified. An F-actin ring is identified as a continuous ring of F-actin at the periphery of a cell, and these distinct structures are visible through a microscope.
A procedure to detect F-actin rings was carried out as follows. Primary hematopoietic cells from the RANK −/− mice were infected with retroviral constructs encoding either the full-length human RANK cDNA or the RANK/TRAF6 binding mutant (RANK Δ340-421). Cells were cultured on LabTek Chamber slides with #1 borosilicate coverglasses (Nalge/Nunc). After incubation for 5 days in MEM containing 10% fetal bovine serum containing 40 ng/ml CSF-1 and 200 ng/ml mRANK-L. The media was aspirated, washed twice in PBS and then fixed in a solution of 3% paraformaldehyde for 10 minutes, followed by quenching in 50 mM NH4Cl. […] The fluorescent signal was detected using a standard fluorescent microscope, and F-actin rings were identified as continuous rings of F-actin at the periphery of individual cells.

[2] = tested on: endogenous c-jun kinase (JNK); assay: JNK immune-complex kinase assay in transfected 3T3 cells; format: cell-based, murine; settings: 3T3 cells 24 hours after transfection, absence of RANK-L stimulation
Experimental: This example describes evaluating murine 3T3 cells transfected with plasmids containing DNA encoding human FEO RANK (SEQ ID NO:9), and murine 3T3 cells expressing recombinant DNA encoding human wild type RANK (SEQ ID NO:1) for their relative ability to activate endogenous c-jun kinase (JNK) in the absence of RANK-L stimulation. JNK is known to be activated as a consequence of RANK signal transduction.
For JNK assays, whole cell extracts were prepared from 3T3 cells 24 hours after transfection. Cells were lysed in a buffer containing 20 mM HEPES, pH 7.4, 2 mM EGTA, 50 mM β-glycerol phosphate, 1 mM DTT, 1 mM sodium orthovanadate, 1% Triton-X 100, 10% glycerol and the protease inhibitors leupeptin, pepstatin A, and PMSF. Clarified lysates were immunoprecipitated with 1 μg each anti-JNK (FL) and anti-JNK (C17) antibodies (both from Santa Cruz Biotechnology, Inc. Santa Cruz, Calif.). […] JNK activity was determined by an immune-complex assay using 1 μg of a fusion protein of glutathione-S-transferase and amino acids 1-169 of […] (GST-cJun (1-169)) (UBI, Lake Placid, N.Y.) and 5 μCi of [^32P]-ATP as substrate in 40 μl of assay buffer at 30° C. for 20 min. […]

[3] = tested on: mouse TRAP promoter (SEQ ID NO:12); assay: mouse TRAP promoter/luciferase reporter in 293/EBNA cells; format: cell-based; settings: 24 hours after transfection, 0.4 ng RANK vector, 20 ng RANK-L vector
From the text: This example describes the activation of the TRAP promoter. A 2.6 kb DNA fragment containing the human TRAP promoter was obtained by digesting the plasmid pBL2HT2.2 with the restriction endonuclease ApaI. The cloning of the human TRAP gene 5′ region and the construction of pBL2HT2.2 are fully described in Reddy et al. (Bone 16:587-593 (1995)). A DNA containing the mouse TRAP promoter (SEQ ID NO:12) and a DNA containing the murine MMP-9 promoter (SEQ ID NO:11) also were used for these experiments. DNAs containing the promoters were fused to the luciferase reporter gene. These promoter/reporter constructs were transfected into human 293/EBNA cells along with various combinations of expression vectors that encoded full-length human RANK (SEQ ID NO:2) and human full-length RANK-L proteins (SEQ ID NO:6).
For the mouse TRAP promoter (SEQ ID NO:12), 2×10^5 293/EBNA cells were transfected using DEAE/dextran with 40 ng of a plasmid encoding approximately 2 kb of the mouse TRAP promoter (SEQ ID NO:12) fused to a luciferase reporter, 20 ng of an expression vector encoding RANK-L (SEQ ID NO:6), and 0.4 ng of an expression vector encoding RANK (SEQ ID NO:2). Twenty four hours after transfection, luciferase activity in cell lysates was measured according to manufacturer's instructions (Promega) using a EG&G/Berthold luminometer. […]

B1: wild type RANK: full-length human RANK, receptor activator of NF-κB (SEQ ID NO:2), expressed from vector or retrovirus (protein, listed as Homo sapiens)
chain: MAPRARRRRPLFALLLLCALLARLQVALQIAPPCTSEKHYEHLGRCCNKCEPGKYMSSKCTTTSDSVCLPCGPDEYLDSWNEEDKCLLHKVCDTGKALVAVVAGNSTTPRRCACTAGYHWSQDCECCRRNTECAPGLGAQHPLQLNKDTVCKPCLAGYFSDAFSSTDKCRPWTNCTFLGKRVEHHGTEKSDAVCSSSLPARKPPNEPHVYLPGLIILLLFASVALVAAIIFGVCYRKKGKALTANLWHWINEACGRLSGDKESSGDSCVSTHTANFGQQGACEGVLLLTLEEKTFPEDMCYPDQGGVCQGTCVGGGPYAQGEDARMLSLVSKTEIEEDSFRQMPTEDEYMDRPSQPTDQLLFLTEPGSKSTPPFSEPLEVGENDSLSQCFTGTQSTVGSESCNCTEPLCRTDWTPMSSENYLQKEVDSGHCPHWAASPSPNWADVCTGCRNPPGEDCEPLVGSPKRGPLPQCAYGMGLPPEEEASRTEARDQPEDGADGRLPSSARAGAGSGSSPGGQSPASGNVTGNSNSTFISSGQVMNFKGDIIVVYVSQTSQEGAAAAAEPMGRPVQEETLARRDSFAGNGPRFPDPCGGPEGLREPEKASRPVQEQGGAKA
transcriptional activation, reporter detected on the cell surface (RANK): resulted in transcription of muIL-4R
cells with F-actin rings [1]: more than 50%
activation of JNK [2]: not
increase of reporter expression (luciferase) [3]: approximately 2 fold
